From patent publication US20210284734A1 (SYMPHOGEN A S, published 2021)
Numbering of substitutions follows the chain as printed. Each block holds one binder with its values, some of them ahead of it.

Key:
Assay in all cases: SPR, Fab on captured PD-1-Fc
[1] = target: T1, human PD-1 ECD-Fc chimeric construct 16 (human, UniProt Q15116 21-170)
T1 construct: not shown: human IgG1 Fc, residues P101-K330
T1 chain: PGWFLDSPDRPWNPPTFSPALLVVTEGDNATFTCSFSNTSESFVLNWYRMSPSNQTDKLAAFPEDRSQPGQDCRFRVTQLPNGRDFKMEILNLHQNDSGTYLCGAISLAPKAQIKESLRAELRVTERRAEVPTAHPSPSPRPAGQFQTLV

[2] = target: T2, human PD-1 ECD-Fc chimeric construct 23 (human, UniProt Q15116 21-170)
T2 construct: not shown: human IgG1 Fc, residues P101-K330

[3] = target: T3, human PD-1 ECD-Fc chimeric construct 20 (human, UniProt Q15116 21-170)
T3 construct: printed run together as I134VK135V; not shown: human IgG1 Fc, residues P101-K330
T3 chain: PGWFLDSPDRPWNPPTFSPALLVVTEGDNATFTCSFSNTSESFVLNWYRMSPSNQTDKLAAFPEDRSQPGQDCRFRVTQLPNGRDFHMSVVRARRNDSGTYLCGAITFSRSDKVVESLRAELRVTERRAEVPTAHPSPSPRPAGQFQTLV

[4] = target: T4, human PD-1 ECD-Fc chimeric construct 22 (human, UniProt Q15116 21-170)
T4 construct: not shown: human IgG1 Fc, residues P101-K330
T4 chain: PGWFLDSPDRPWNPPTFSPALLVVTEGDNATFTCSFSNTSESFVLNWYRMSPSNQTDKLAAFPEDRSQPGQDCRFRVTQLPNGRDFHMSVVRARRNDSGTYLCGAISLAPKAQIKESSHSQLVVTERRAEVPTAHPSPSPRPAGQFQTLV

[5] = target: T5, human PD-1 ECD-Fc chimeric construct 15 (human, UniProt Q15116 21-170)
T5 construct: not shown: human IgG1 Fc, residues P101-K330
T5 chain: T1 chain with G83T, R84P, D85V, L91V, N92R, L93A, H94R, Q95R

[6] = target: T6, human PD-1 ECD-Fc chimeric construct 18 (human, UniProt Q15116 21-170)
T6 construct: not shown: human IgG1 Fc, residues P101-K330
T6 chain: T4 chain with T100F, L102Y, A105L, S118L, H119R, S120A, Q121E, V123R

[7] = target: T7, human PD-1 ECD-Fc chimeric construct 21 (human, UniProt Q15116 21-170)
T7 construct: printed run together as I134VK135V; not shown: human IgG1 Fc, residues P101-K330
T7 chain: T4 chain with K111S, A112D, Q113K, I114V, K115V, Q121E, V123R

[8] = target: T8, human PD-1 ECD-Fc chimeric construct 8 (human, UniProt Q15116 21-170)
T8 construct: not shown: human IgG1 Fc, residues P101-K330
T8 chain: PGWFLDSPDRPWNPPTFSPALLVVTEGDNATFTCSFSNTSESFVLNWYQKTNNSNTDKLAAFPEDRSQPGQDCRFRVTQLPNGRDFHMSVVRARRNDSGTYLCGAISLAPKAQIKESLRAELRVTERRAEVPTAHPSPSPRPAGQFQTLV

[9] = target: T9, human PD-1 ECD-Fc chimeric construct 1 (human, UniProt Q15116 21-170)
T9 construct: not shown: human IgG1 Fc, residues P101-K330

[10] = target: T10, human PD-1 ECD-Fc chimeric construct 4 (human, UniProt Q15116 21-170)
T10 construct: not shown: human IgG1 Fc, residues P101-K330
T10 chain: T4 chain with E26A, D28S, N29S, T33I, S35N, S118L, H119R, S120A, Q121E, V123R

[11] = target: T11, human PD-1 ECD-Fc chimeric construct 17 (human, UniProt Q15116 21-170)
T11 construct: not shown: human IgG1 Fc, residues P101-K330
T11 chain: T1 chain with K87H, E89S, I90V, T100F

[12] = target: T12, human PD-1 ECD-Fc chimeric construct 5 (human, UniProt Q15116 21-170)
T12 construct: 'S56I' as printed; not shown: C-terminal human IgG Fc (printed as residues P101-K330)
T12 chain: T4 chain with T33I, S35N, F36I, T39S, S118L, H119R, S120A, Q121E, V123R

[13] = target: T13, human PD-1 ECD-Fc chimeric construct 12 (human, UniProt Q15116 21-170)
T13 construct: not shown: human IgG1 Fc, residues P101-K330
T13 chain: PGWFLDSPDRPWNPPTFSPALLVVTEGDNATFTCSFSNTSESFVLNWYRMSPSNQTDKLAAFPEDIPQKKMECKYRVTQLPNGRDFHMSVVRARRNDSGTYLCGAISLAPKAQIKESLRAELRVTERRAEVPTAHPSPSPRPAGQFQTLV

KD mutant/KD wild-type [1]: 0.7 ratio
KD mutant/KD wild-type [2]: 1.5 ratio
KD mutant/KD wild-type [3]: 0.6 ratio
KD mutant/KD wild-type [4]: 1 ratio
KD mutant/KD wild-type [5]: 0.9 ratio
KD mutant/KD wild-type [6]: 1.5 ratio
KD mutant/KD wild-type [7]: 0.5 ratio
KD mutant/KD wild-type [8]: 1.6 ratio
KD mutant/KD wild-type [9]: 0.4 ratio
KD mutant/KD wild-type [10]: 0.6 ratio
KD mutant/KD wild-type [11]: 0.7 ratio
KD mutant/KD wild-type [12]: 2.5 ratio
KD mutant/KD wild-type [13]: 0.6 ratio
B1: 13112.15380 Fab (Fab, V domains shown)
VH: EVQLLESGGGLVQPGGSLRLSCAASGFTFSSYNMFWVRQAPGKGLEFVAEISGSNTGSRTWYAPAVKGRATISRDNSKNTLYLQMNSLRAEDTAVYYCAKSIYGGYCAGGYSCGVGLIDAWGQGTLVTVSS
VL: SYELTQDPAVSVALGQTVRITCSGGSSDYYGWFQQKPGQAPVTVIYYNNKRPSDIPDRFSGSSSGNTASLTITGAQAEDEADYYCGNADSSVGVFGSGTKVTVL

KD mutant/KD wild-type [1]: 3.6 ratio
KD mutant/KD wild-type [2]: 1.7 ratio
binding result [3]: no binding (tested: 1 nM to 50 nM)
KD mutant/KD wild-type [4]: 1.9 ratio
KD mutant/KD wild-type [5]: 1.3 ratio
KD mutant/KD wild-type [6]: 3.8 ratio
binding result [7]: no binding (tested: 1 nM to 50 nM)
KD mutant/KD wild-type [8]: 6.4 ratio
KD mutant/KD wild-type [9]: 1.2 ratio
KD mutant/KD wild-type [10]: 0.3 ratio
KD mutant/KD wild-type [11]: 0.2 ratio
KD mutant/KD wild-type [12]: 1.2 ratio
KD mutant/KD wild-type [13]: 2.2 ratio
B2: 12819.17149 Fab (Fab, V domains shown)
VH: EVQLLESGGGLVQPGGSLRLSCAASGFTFTRYDMVWVRQAPGKGLEWVAGIGDSNKMTRYAPAVKGRATISRDNSKNTLYLQMNSLRAEDTAVYYCAKGSCIACWDEAGRIDAWGQGTLVTVSS
VL: SYELTQDPAVSVALGQTVRITCSGGGSYDGSSYYGWYQQKPGQAPVTVIYNNNNRPSDIPDRFSGSSSGNTASLTITGAQAEDEADYYCGSYDRPETNSDYVGMFGSGTKVTVL
notes: monomeric Fab fragment

KD mutant/KD wild-type [1]: 0.4 ratio
KD mutant/KD wild-type [2]: 1 ratio
binding result [3]: no binding (tested: 1 nM to 50 nM)
KD mutant/KD wild-type [4]: 1 ratio
KD mutant/KD wild-type [5]: 0.8 ratio
KD mutant/KD wild-type [6]: 4.6 ratio
binding result [7]: no binding (tested: 1 nM to 50 nM)
binding result [8]: no binding (tested: 1 nM to 50 nM)
KD mutant/KD wild-type [9]: 0.6 ratio
KD mutant/KD wild-type [10]: 0.6 ratio
KD mutant/KD wild-type [11]: 0.5 ratio
KD mutant/KD wild-type [12]: 0.9 ratio
KD mutant/KD wild-type [13]: 0.6 ratio
B3: 12865.17150 Fab (Fab, V domains shown)
VH: EVQLLESGGGLVQPGGSLRLSCAASGFDFSDHGMQWVRQAPGKGLEYVGVIDTTGRYTYYAPAVKGRATISRDNSKNTLYLQMNSLRAEDTAVYYCAKTTCVGGYLCNTVGSIDAWGQGTLVTVSS
VL: SYELTQDPAVSVALGQTVRITCSGGGSSSYYGWYQQKPGQAPVTVIYDDTNRPSGIPDRFSGSSSGNTASLTITGAQAEDEADYYCGGYEGSSHAGIFGSGTKVTVL
notes: monomeric Fab fragment
